Sequences and labels used below:
T1: SNAP-Fbs1 fusion protein (wild-type human Fbs1 sugar-binding domain, residues 92-296) (human, UniProt Q9UK22 92-296)
T1 construct: Immobilised covalently through the SNAP tag on benzylguanine (BG) agarose beads in the bead assays; also called wt Fbs1; Fbs1 beads; source: NEB Express E. coli, purified (for Fbs1 beads and ITC); E. coli cell lysate (fetuin or RNase B bead pulldown); not shown: SNAP tag, N-terminal, kept
T1 sequence (looked up): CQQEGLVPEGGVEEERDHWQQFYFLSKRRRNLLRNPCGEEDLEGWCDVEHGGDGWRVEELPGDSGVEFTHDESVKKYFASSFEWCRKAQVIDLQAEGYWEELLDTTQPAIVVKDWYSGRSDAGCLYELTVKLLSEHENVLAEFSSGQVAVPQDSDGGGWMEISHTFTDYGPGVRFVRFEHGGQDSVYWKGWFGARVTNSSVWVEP

T2: fetuin (UniProt P12763 19-359, sialylated complex N-linked glycans)
T2 construct: fetuin; Denatured by boiling in Rapid PNGase F buffer, or on Affi-Gel 15 beads with 6 M guanidine-HCl; also called sialylated fetuin; fetuin beads; source: bought: New England Biolabs; denatured before the assay
T2 sequence (looked up): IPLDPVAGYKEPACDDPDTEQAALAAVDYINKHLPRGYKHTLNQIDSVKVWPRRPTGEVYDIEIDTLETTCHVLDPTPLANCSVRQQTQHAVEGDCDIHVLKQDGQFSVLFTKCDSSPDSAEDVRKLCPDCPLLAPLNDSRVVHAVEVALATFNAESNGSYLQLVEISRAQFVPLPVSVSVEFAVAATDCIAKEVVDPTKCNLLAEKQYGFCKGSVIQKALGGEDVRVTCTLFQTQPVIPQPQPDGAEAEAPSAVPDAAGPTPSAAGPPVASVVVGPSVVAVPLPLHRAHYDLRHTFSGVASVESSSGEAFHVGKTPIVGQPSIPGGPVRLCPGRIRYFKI

B1: sialylglycopeptide (SGP) (peptide)
peptide: KVAN(bi‑antennary complex N‑glycan, terminal sialic acids)KT
notes: naturally occurring glycopeptide of six amino acids; source: bought: Fushimi Pharmaceutical Co., Ltd
B2: SGP-TMR (SGP labelled with two TMR fluorophores on the lysines) (peptide)
peptide: K(TMR)VAN(bi‑antennary complex N‑glycan, terminal sialic acids)K(TMR)T
notes: peptide of SGP; also called glycopeptide 1
B3: SGP-TMR without sialic acids, galactose and GlcNAc (peptide)
peptide: K(TMR)VAN(N‑glycan pentasaccharide core)K(TMR)T
notes: peptide of SGP; also called glycopeptide 4; source: SGP-TMR trimmed with α2-3,6,8 Neuraminidase, β1-4 Galactosidase S and β-N-Acetylglucosaminidase S
B4: RNase B (natural protein, UniProt P61823 27-150, looked up)
chain: KETAAAKFERQHMDSSTSAASSSNYCNQMMKSRNLTKDRCKPVNTFVHESLADVQAVCSQKNVACKNGQTNCYQSYSTMSITDCRETGSSKYPNCAYKTTQANKHIIVACEGNPYVPVHFDASV
modifications: a single site modified by a variety of high-mannose N-glycans
notes: RNase B, the N-glycosylated form of pancreatic ribonuclease; Denatured by boiling (SDS/DTT or Rapid PNGase F buffer), or on Affi-Gel 10 beads with 6 M guanidine-HCl; source: bought: New England Biolabs; denatured before the assay
B5: SGP-TMR without sialic acids and galactose (peptide)
peptide: K(TMR)VANK(TMR)T
modifications: not fully specified (residue 4)
notes: peptide of SGP; also called glycopeptide 3; source: SGP-TMR trimmed with α2-3,6,8 Neuraminidase and β1-4 Galactosidase S
B6: SNAP-Fbs1 GYR variant (S155G, F173Y, E174R) (designed binder)
chain: T1 sequence (looked up) with S64G, F82Y, E83R
notes: numbered on the full-length human protein; source: E. coli, purified (for beads and N-glyco-FASP); E. coli cell lysate (fetuin bead pulldown); not shown: SNAP tag, N-terminal, kept
B7: SNAP-Fbs1 PPRYR variant (combination of PPR and YR) (designed binder)
chain: T1 sequence (looked up) with D63P, S64P, G65R, F82Y, E83R
notes: numbered on the full-length human protein; source: E. coli, purified (for beads); E. coli cell lysate (fetuin bead pulldown); not shown: SNAP tag, N-terminal, kept
B8: SNAP-Fbs1 S155A mutant (domain or fragment, human, UniProt Q9UK22 92-296, looked up)
chain: T1 sequence (looked up) with S64A
notes: numbered on the full-length human protein; source: E. coli cell lysate; not shown: SNAP tag, N-terminal, kept
B9: SNAP-Fbs1 S155G mutant (domain or fragment, human, UniProt Q9UK22 92-296, looked up)
chain: T1 sequence (looked up) with S64G
notes: as for B8

Assay [1] concerns the target T1, SNAP-Fbs1 fusion protein (wild-type …). In words: ITC; 270 μM SGP injected into 27 μM SNAP-Fbs1; 20 mM Tris.HCl pH 7.5, 1 mM EDTA, 2 M NaCl (high salt); single site binding model. The following applies: both partners purified. On the technique in general: Isothermal titration calorimetry measures the heat released or taken up as one component is titrated into another.

Assay [2] shares this target. In words: ITC; 270 μM SGP injected into 27 μM SNAP-Fbs1; 20 mM Tris.HCl pH 7.5, 1 mM EDTA, 50 mM NaCl (low salt); single site binding model. Particulars: both partners purified.
The target of assay [3] is B6. In words: affinity purification with mass spectrometry; wt Fbs1 or Fbs1 GYR enrichment from a tryptic digest of RNase B spiked with SGP and SGP-TMR; low salt (50 mM ammonium acetate, pH7.5); LC-MS, SGP-TMR by fluorescence. The following applies: both partners purified.
The target of assay [4] is B6. Nature of the assay: pull-down; wt or GYR SNAP-Fbs1 on BG beads; TMR-labelled glycopeptides; 4 °C, 1 h; bound amount from the TMR fluorescence left in the supernatant, given as recovery percentage; low salt (50 mM NaCl or 50 mM ammonium acetate pH 7.5) or high salt (2 M NaCl). The following applies: both partners purified.
For assay [5], the target named is T1, SNAP-Fbs1 fusion protein (wild-type …). The assay is described as above. Particulars: both partners purified.
The target in assay [6] is B6. In words: pull-down; wt, GYR or PPRYR SNAP-Fbs1 on BG beads; mixture of denatured fetuin and RNase B; low salt (50 mM ammonium acetate pH 7.5 named for Fig. 4a); 4 °C, 1 h; SDS-PAGE. Particulars: both partners purified.
Assay [7] deals with T2, fetuin. Nature of the assay: pull-down; fetuin (Affi-Gel 15) or RNase B (Affi-Gel 10) beads, denatured with 6 M guanidine-HCl; E. coli cell lysate with wt or mutant SNAP-Fbs1; 20 mM Tris.HCl pH 7.5, 1 mM EDTA, 50 mM NaCl (low salt) or 2 M NaCl (high salt), 30% Protein-Free Blocking buffer; 4 °C, 1 h; SDS-PAGE, ImageJ. The following applies: one partner purified.

Positions count from the first letter of the chain named. Names and notes keep the numbering of the source. No end group written: not given here. TMR = tetramethylrhodamine

By Kd is commonly meant the equilibrium constant for the complex coming apart. For the molecule B1, the equilibrium dissociation constant (Kd) in assay [1] was found to be 1400 ± 40 nM; in assay [2], 3000 nM. Further, the binding result in assay [3] was “binds”.

Turning to B2, in assay [4], the binding result is “binds”.

On to B3, for which the “fold improvement in recovery (against untrimmed SGP-TMR)” value in assay [5] was ≥ 3 fold. Besides, the binding result in assay [4] is “binds”.

In the case of B4, in assay [6], the binding result was “binds”.

In the case of B5, in assay [4], the binding result is “binds”.

With B6, in assay [7], the “fold change of the pulled-down amount against wt Fbs1” value (from here on “fold change of the pulled-down amount”) was ≥ 3.5 fold.

Regarding B7, the “fold change of the pulled-down amount” value in assay [7] was ≥ 3.5 fold.

In the case of B8, the “fold change of the pulled-down amount” value in assay [7] was found to be 1.5 fold.

Consider B9, for which the “fold change of the pulled-down amount” value in assay [7] is 2 fold.

The values above are taken from paper PMC5457524, “An engineered high affinity Fbs1 carbohydrate binding protein for selective capture of N-glycans and N-glycopeptides” (Nature Communications, 2017).
